Laboratory results from PMC5737841.

Columns and labels:
Experiment in all cases: UV crosslinking
[1] = target: T1, SisCsx1-M3 (Sulfolobus islandicus Rey15A, UniProt F0NE21 1-454, D50L;S51L)
T1 sequence: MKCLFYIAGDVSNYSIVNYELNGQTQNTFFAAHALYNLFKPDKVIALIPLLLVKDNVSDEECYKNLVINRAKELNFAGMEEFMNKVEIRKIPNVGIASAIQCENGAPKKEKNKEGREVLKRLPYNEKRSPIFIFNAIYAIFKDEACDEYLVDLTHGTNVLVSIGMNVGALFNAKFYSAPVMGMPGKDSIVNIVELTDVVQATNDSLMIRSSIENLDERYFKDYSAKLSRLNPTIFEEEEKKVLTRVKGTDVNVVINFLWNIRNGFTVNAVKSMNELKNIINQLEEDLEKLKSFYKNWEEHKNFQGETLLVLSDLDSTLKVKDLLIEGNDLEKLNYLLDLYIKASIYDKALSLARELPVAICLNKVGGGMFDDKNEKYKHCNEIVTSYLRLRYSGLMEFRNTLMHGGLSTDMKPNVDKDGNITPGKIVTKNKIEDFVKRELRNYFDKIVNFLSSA

[2] = target: T2, SisCsx1-M2 (Sulfolobus islandicus Rey15A, UniProt F0NE21 1-454, G95L;A97L;A99L)
T2 sequence: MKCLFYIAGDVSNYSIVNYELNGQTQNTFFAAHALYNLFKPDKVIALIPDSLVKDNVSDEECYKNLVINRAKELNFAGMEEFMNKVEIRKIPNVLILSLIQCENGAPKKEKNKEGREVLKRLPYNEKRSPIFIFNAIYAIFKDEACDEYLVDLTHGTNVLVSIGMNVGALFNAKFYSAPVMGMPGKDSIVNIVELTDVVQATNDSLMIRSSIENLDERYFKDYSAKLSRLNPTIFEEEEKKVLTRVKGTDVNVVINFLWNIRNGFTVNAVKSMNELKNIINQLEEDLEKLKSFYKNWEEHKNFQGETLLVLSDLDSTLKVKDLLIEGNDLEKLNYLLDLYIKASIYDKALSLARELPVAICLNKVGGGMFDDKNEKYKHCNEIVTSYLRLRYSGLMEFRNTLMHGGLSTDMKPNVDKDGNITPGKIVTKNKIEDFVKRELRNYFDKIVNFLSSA

[3] = target: T3, SisCsx1-M6 (Sulfolobus islandicus Rey15A, UniProt F0NE21 1-454, H155L)
T3 sequence: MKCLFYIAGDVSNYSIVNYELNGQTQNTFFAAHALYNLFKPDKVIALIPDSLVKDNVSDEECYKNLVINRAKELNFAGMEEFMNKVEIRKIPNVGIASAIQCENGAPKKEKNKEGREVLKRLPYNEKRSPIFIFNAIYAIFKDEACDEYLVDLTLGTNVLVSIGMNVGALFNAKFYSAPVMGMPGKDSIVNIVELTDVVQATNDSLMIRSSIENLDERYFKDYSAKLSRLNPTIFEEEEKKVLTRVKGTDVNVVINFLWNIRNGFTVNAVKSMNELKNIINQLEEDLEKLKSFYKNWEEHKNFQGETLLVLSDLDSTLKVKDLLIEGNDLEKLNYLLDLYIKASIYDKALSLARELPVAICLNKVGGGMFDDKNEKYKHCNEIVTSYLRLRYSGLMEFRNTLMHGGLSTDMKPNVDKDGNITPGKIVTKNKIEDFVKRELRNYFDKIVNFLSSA

Measured: binding result

B1: S3A7 (ssRNA)
RNA: CGCAAAAAAA
no binding: all assays above
